Measured values from the nanobody polyreactivity screen of Harvey et al. (2022).

Assay: yeast display, Sf9 membrane polyspecificity reagent, FACS + sequencing; frameworks hold sequencing errors
How it was run: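 In a synthetic yeast display library (Saccharomyces cerevisiae BJ5465), nanobody expression was induced with galactose for 36–48 hours. FACS gates were set low and high (top ~1%) using anti-HA fluorescence for expression and streptavidin fluorescence for binding of the Sf9 membrane reagent. Each polyreactivity label is drawn from the gate of origin.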

Sequence | polyreactivity (PSR sort gate)
QVQLVESGGGLVPAGGSLPLSCAASGSTFSGHTMGWYRQAPGQDWELVADINWSSGSTYYADSVKGRFTISRDNAKNNVYLQMHSLKPEDTALLYCAAVEPFSDFDYWGQGTQVTLSS | low polyreactivity
QVQLVESGGGLVPAGGSLRLSCAASGFIFQWYAMGWYRQAPGKERELVAAISSSGGSTYYADSVKGRFTISRDNAKNTVYLQMNSLKPEDTAVYYCAAVWASYPYRGVDYWGQGTQVTVSS | high polyreactivity
QVQLVESGGGLVPAGGSLRLSCAASGRIFWSNAMGWYRQAPGKERELVAAITWRGGSTYADSVKGRFTISRDNAKNTVYLQMNSLKPEDTAVFYCAASPSGWRYDYWGQGTQVTVSS | high polyreactivity
QVQLVESGGGLVPAGGSLRLSCAASGRIITINAIGWYRKAPGKERELVAAISNSGGRTYADSVKGRFTISRDNAKNTVYLQMNSLKPEDTAVYYCAKRYRFHFWGQGTQVTVSS | low polyreactivity
QVQLVESGGGLVPAGGSLRLSCAASGRTFAGNAMGWYRPAPGTERELVAVISRGGSTYYADSVKGRFTISRDNAKNTVYLQMNSLKPEDTAVYYCAARLRTTSVRGRYDYWGQGTQVTVSS | high polyreactivity
QVQLVESGGGLVPAGGSLRLSCAASGSIFKINAMGWYRQAPGKERELVATITWSTGTTYYADSVKGRFTISRDNAKNTVYLQMNSLKPEDTAVYYCATDGDSTKLDYWGQGTQVTVSS | low polyreactivity
QVQLVESGGGLVPAGGSLRLSCAASGSIFVGYAMGWYRQAPGKERELVADITVGGGSTFYADSVKGRFTISRDNAKNTVYLQMTSLKPEDTAVYYCAKYAGVYEYDYWGQGTQVTVSS | low polyreactivity
QVQLVESGGGLVPAGGSLRLSCAASGSTFVGNAMGWYRQAPGKERELVAAISSGGSTNYADSVKGRFTISRDNAKNTVYLQMNSLKPEDTAVYYCNAVYFYWLYGFSYFATGITYDYWGQGTQVTVSS | high polyreactivity
QVQLVESGGGLVPAGGSLRLSCAASGSTFVRYVMGWYRQAPGKERELVAAISRRGGSTYYADSVKGRCTISRDIAKNTVYLQMNSLKPEDTAVYYCADSRGTRTTGYSSYDRFGYWGQGTQVTVSS | high polyreactivity
QVQLVESGGGLVPAGGSLRLSCAASGSTGFNAMGWYRQAPGKERELVAAINYSDGSTYYADSVKGRFTISRDNAKNTVYLQMNSLKPEDTAVYYCNAGSSKDDSYYSYGYWGQGTQVTVSS | low polyreactivity
QVQLVESGGGLVPAGGSLRLSCPAGGFIFGSNVMGWYRQAPGKEREFVAAITYGGVSTYYADSVKGRFTISRDNAKNTVYLQMNSLKPEDTAVYYCNTDRGKRLGKQASSKRYDYWGQGTQVTVSS | high polyreactivity
QVQLVESGGGLVQAAGSLRISCAASGLIFGWNAMGWYRQAPGKERELVAAITSGGSTYYADSVKGRFTISRDNAKNTVYLQMNSLKPEDTAVYYCAAVYVLGKTGRVYGKYGYWGQGTQVTVSS | high polyreactivity
QVQLVESGGGLVQAAGSLRISCAASGLIFNYYAMGWYRQAPGKERELVAAISKDGGSTYYADSVKGRFTISRDNAKNTVYLQMNSLKPEDTADFYCAARTFRISRMDYRGQGTQVTVSS | high polyreactivity
QVQLVESGGGLVQAAGSLRLICAASGSTFEGNVMGWYRPAPGKERELVAAMSVRGGSTYYADSVKGRFTISRDNAKNTVYLQMNSLKQEDTEDYYCAKKYYRPFWEGDYWGQGTQVTVSS | low polyreactivity
QVQLVESGGGLVQAAGSLRLSCAASGFIFIYNAMGWYRQAPGKERELVAAITGSDGGTFYADSVKGRFTFSRDYAKNTVYLQINSLKPEDTAVYYCHADNGSRQSRDGYESWGQGTQVTVSS | low polyreactivity
QVQLVESGGGLVQAAGSLRLSCAASGFIFLVYSMGWSRQAPGKARELVAAISASGGRTYYADSVKGRFTISRDNAKNTVYLQMNSLKPEDTAVYYCARLLPTPGKPILDYWGQGTQVTVSS | low polyreactivity
QVQLVESGGGLVQAAGSLRLSCAASGFTFEKYVMGRYRQAPGKEREFVAAITRSGGRTYYADSVKGRFTISRDNAKNTVYLQMNSLKPEYTAVYYCAAAFSRSDTGGGSWGQGTQVTVSS | high polyreactivity
QVQLVESGGGLVQAAGSLRLSCAASGFTFWLYAMGWYRQAPGSEREMVAAIRRGGGTNYADSVKGRFTISRDNAKNTVYLQMNSLKPEDTAVYYCAAAVLSYRHAHAGYYYAKGDYWGQGTQVTVSS | high polyreactivity
QVQLVESGGGLVQAAGSLRLSCAASGITLYWYAMGWSRQAPGKERELVATISRRGGTTYYADSVKGRFTISRDNAKNTVYLQMNSLKPEDTAVYYCAKAPDTQTSWSRQEGNYWGQGTQVTVSS | low polyreactivity
QVQLVESGGGLVQAAGSLRLSCAASGLTFWKYTMGWNRQAPGKEWELVAAISISGTNTYYADSVKGRFTISRDNAKNTVYLQLNSLKPEDTAVYYCAAVRGYPPTNYYYWGPGTQVTVSS | high polyreactivity
QVQLVESGGGLVQAAGSLRLSCAASGRIFTPYAMGWYRQAPGKERELVAVIRDGSTYYADSVKGRFTISRDNAKNTVYLQMNSLKPEDTAVYYCRYDIWVWWSGAYDYWGLGTQVTVSS | low polyreactivity
QVQLVESGGGLVQAAGSLRLSCAASGRTFHWYVMGWYRQAPGKESELDAAITRRGGSTYYADSVKGRFTISRDNAKNTVYLQLNSLKPEDTAVYYCAAVGNRRYYFGYDYWGQGTQVTVSS | high polyreactivity

Sequence | polyreactivity (PSR sort gate)
QVQLVESGGGLVQAAGSLRLSCAASGRTSVRYAMGWNRQAHGKERELVAAISWSGGSTYYADSVKGRFTISRDNAKNTVYLQMNSLKPEDTAVYYCNAQHALGYYYWGQGTQVTVSS | low polyreactivity
QVQLVESGGGLVQAAGSLRLSCAASGTTFNRFFMGWYREAPGTERELVAANGGRTYYADSVKGRFTISRDNAKKSVYFQRNSLKPEDTAVYYCNARSYKHPYYRFDYWGQGTEVTVSS | high polyreactivity
QVQLVESGGGLVQAAGSLRVSCAASGSIFYGYAMGGYRKAPGKERELVAAITTVGSTYADSVKGRFTISRDNAKNTVYLQMNSLKPEDTAVYYCNARDYERTRRYLIVYSRYGYWGHGTQVTVSS | low polyreactivity
QVQLVESGGGLVQAGASLRLSCAASGFTFGINAMGWYRQAPGKERELVATISTRGGTTHYADSVKGRFTISRDNAKNTVYLQMNRLKPEDTAVYYCAVERGTFRSGFAYEYYYWGQGTQVTVSS | low polyreactivity
QVQLVESGGGLVQAGASLRLSCAASGRIFARYAMGWYRQAPGKERELVASITRSGGSTYYADSVKGRYTISRDNAKNTVYLQMNSLKPEDTAVYYCAARYGRVRDVIPYDYWGQGTQVTVSS | high polyreactivity
QVQLVESGGGLVQAGASLRLSCAASGRIFPTYAMGWYRQAPGKEMEFVAAISRSGGRTYYADSVKGRFTISRDHAKNTVYLQMNSLKPEDTAVYYCNAEGDPYVDFPSRSTGYDYWGQGTQVTVSS | high polyreactivity
QVQLVESGGGLVQAGASLRLSCAASGRTFETNAMGWYSQAPGKEREFVASINWSGGSTYYSDSVKGRFTISRDNAKNTVYLQMNSLKPEDTAVYYCAADHSYWDWWSYYYWGQGTQVTVSS | low polyreactivity
QVQLVESGGGLVQAGASLRLSCAASGRTFGGYAMGWYRQAAGKERELVAAISYSGGSTYYADSVKGRFTISRDYAKNTVYLQMNSLKPEDTAVYYCAADGFDAYYWGQGTQVTVSS | low polyreactivity
QVQLVESGGGLVQAGASLRLSCAASGRTYRWYTMGWYRPAPGKERELVAAITSRGGSTYADSVKGRFTISRDNAKNTVYLQMNSLKPEDTAVYYCNAARTYQYDYWGQGTQVTVSS | high polyreactivity
QVQLVESGGGLVQAGASLRLSCAASGSIFSGYTMGWYRQAPGKERELVAGISYRGGSTYYADSVKGRFTISRDNAKNTVYLQMNSLKPEDTAVYYCAALYYRRGSLNYEYWGQGTQVTVSS | high polyreactivity
QVQLVESGGGLVQAGASLRLSCAASGSIFSSYARGWYRPAPGKERELVAVITNGGSTYYADSVKGRFTISRDYAKNTVYLQMNSLKPEDTAVYYCNARWTKGRKYGYWGQGTQVTVSS | low polyreactivity
QVQLVESGGGLVQAGASLRLSCAASGSIFTRNTMGWYRQAPGKERELVARISGGRTNYADSVKGRFTISRDNAKNTVYLQMYSLKPVDTAVYYCAARGLYTPTKRSGDPYYYWGQGSQVTVSS | high polyreactivity
QVQLVESGGGLVQAGASLRLSCAASGSIFYYDMGWDRQAPGKERELVAAITWSGGSTYYADSVKGRFTISRDNAKNTVYLQMNSLKPEDTAVYYCAAIFGYGSTWWRWGKDDYWGQGTQVTVSS | high polyreactivity
QVQLVESGGGLVQAGASLRLSCAASGSTFYYYAMGWYRQAPGKERELVAAITYRGGSTYYADSVKGRFTISRDNAKNTDFLQMNSLKPEDPAVYYCAADIVTGFISGPGYVYWGQGTQVTVSS | high polyreactivity
QVQLVESGGGLVQAGASLRLSCDASGLTFGYYAMGWYRQAPGKERELVAAINRSGNTNYADSVKGRFTISRDNAKNTVYLQMNSLKPEDTAVYYCAKRIWSILSPYKSSYGYDYWGQGTQVTVSS | low polyreactivity
QVQLVESGGGLVQAGCRLRLSCAASGLIFGYYHMGWYRQAPGKERELVAAITTGDSTYYADSVKGRFTISRDNAKNTVYLQMNSLKPEDTAVYYCAAYPVWYYEYDYWGQGTQVTVSS | low polyreactivity
QVQLVESGGGLVQAGCSLLLSCDATGNIFRYYFMGWYRQAPGKEREFVAAITTSCGSTYYADSVKGRFTISRDNAKNTVYLQMNSLKQEDTAVYYCAKDYWVPGWAEYDYWGQGTQVTVSS | low polyreactivity
QVQLVESGGGLVQAGCSLRISCAASGLIFQYYAMGWYRQAPGKERELVAAISGFGVRTYYADSVKGRFTISRDNAKNTVYLQMNSLKPEDTAVYYCNTLRQDIIRGDYWGQGTQVTVSS | high polyreactivity
QVQLVESGGGLVQAGCSLRISSAASGRIFAVKAMGWYRQAPGKDRELVAAITNVGSTNYADSVKGRFTISRDNAKNTVYLQMNSLKPEDTAVYYCNADLAQEDWKMDYWGQGTQVTVSS | low polyreactivity
QVQLVESGGGLVQAGCSLRLICAASALTFYHKAMGWYRPAPVKERELVAPISSSGDSTYSADSVKGRFTISHDNGKNTVYLQMNSLKPEYTAVYYCAADLGYYNARWYEYWGQGTQVTVSS | high polyreactivity
QVQLVESGGGLVQAGCSLRLRCAASGYTFYDYAMGWYRPAPGKERELVAASSSSGGSTYYADSVKGRFTISRDNAKNTGYLQMNSVKPEDTALYYCAVRARRWRYNYWGQGTQVTVSS | high polyreactivity
